Experiments:
[1] = target: T1, dog FAPα on Expi293F cells (dog (Canis familiaris), UniProt A5D7B7 1-760 (bovine entry)); test: flow cytometry on Expi293F cells transiently expressing dog FAPα, gMFI PE
T1 chain: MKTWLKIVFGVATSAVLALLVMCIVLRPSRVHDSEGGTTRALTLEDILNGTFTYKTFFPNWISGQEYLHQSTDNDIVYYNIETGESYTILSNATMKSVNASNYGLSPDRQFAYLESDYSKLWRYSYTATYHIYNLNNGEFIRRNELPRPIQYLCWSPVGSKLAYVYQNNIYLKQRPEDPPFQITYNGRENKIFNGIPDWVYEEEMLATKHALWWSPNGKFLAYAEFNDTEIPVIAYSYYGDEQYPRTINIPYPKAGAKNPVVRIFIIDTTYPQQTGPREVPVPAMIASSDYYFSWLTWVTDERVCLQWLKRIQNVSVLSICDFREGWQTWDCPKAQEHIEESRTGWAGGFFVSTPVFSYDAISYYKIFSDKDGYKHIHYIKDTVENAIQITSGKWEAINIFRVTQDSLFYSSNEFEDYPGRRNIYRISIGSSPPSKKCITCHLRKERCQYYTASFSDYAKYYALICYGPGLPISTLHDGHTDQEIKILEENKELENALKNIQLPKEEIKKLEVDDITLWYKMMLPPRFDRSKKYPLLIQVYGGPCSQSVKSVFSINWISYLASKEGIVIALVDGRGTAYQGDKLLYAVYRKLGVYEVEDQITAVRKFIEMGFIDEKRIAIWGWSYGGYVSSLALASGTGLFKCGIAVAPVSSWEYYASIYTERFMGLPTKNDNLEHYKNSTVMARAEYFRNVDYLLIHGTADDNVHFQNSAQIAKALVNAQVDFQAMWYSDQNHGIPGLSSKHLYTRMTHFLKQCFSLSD
Procedure: Binding of BisG1-FAPα-FERL/DR4-FERR, BisG1-FAPα-FEAL/b12-FEAR and IgG1-FAPα-FERL to FAPα of species commonly used for nonclinical toxicology studies was assessed by flow cytometry using Expi293F cells transiently expressing FAPα from different animal species. IgG1-b12 was included as negative control.
Expi293F cells expressing recombinant FAPα from various species (human, cynomolgus monkey, dog, pig, rat or mouse) were seeded (20,000 cells/well) in 96-Well round bottom plates (Greiner Bio-one, Cat #650101). Antibody dilutions were prepared using FACS buffer, consisting of PBS (Capricorn Scientific, Cat #PBS-10XA, diluted to 1×PBS in distilled water)+1% BSA (Roche, Cat #10735086001)+0.02% Sodium Azide (Bio-World, Cat #41920044-3). Plates were centrifuged, supernatant was removed, and cells were resuspended in 100 μL of antibody dilutions (concentration range 30-0.00017 μg/mL with three-fold serial dilutions using FACS buffer) of BisG1-FAPα-FERL/DR4-FERR, BisG1-FAPα-FEAL/b12-FEAR, IgG1-FAPα-FERL and IgG1-b12 and incubated for 30 min at 4° C. […] After 30 min incubation at 4° C., cells were washed with FACS buffer and resuspended in FACS buffer supplemented with TO-PRO-3 Iodide viability marker (Invitrogen, Cat #T3605, diluted 1:4,000). Antibody binding to viable cells (gMFI of PE on TO-PRO-3 negative cells) was analyzed by flow cytometry on a FACS Celesta and FACS_Diva software (first two experiments) or iQue® 3 and FlowJo software (last experiment). gMFI was determined and visualized using GraphPad Prism. Binding curves were analyzed using nonlinear regression analysis. The concentration (pg/mL) at which 50% of the maximal effect was observed (EC₅₀) was derived from the fitted curves.

[2] = target: T2, human DR4 (Death Receptor 4), cell surface expressed on human tumor cell lines (human, UniProt O00220 24-468); test: flow cytometry, HCT-116 cells, n = 3
T2 construct: also called TNFRSF10A; TRAIL-R1
T2 sequence: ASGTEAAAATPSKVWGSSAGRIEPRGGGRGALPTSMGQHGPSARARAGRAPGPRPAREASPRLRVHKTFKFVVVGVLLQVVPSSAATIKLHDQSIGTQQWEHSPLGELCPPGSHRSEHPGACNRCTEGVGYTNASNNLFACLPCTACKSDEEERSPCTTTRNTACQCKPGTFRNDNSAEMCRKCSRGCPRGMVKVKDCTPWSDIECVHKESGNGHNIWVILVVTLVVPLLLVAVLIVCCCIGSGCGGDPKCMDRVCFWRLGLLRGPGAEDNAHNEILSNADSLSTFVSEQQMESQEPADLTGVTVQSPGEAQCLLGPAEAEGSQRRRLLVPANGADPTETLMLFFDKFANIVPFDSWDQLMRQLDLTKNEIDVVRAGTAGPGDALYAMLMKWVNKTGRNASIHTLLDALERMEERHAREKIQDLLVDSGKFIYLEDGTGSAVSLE

[3] = target: T2, human DR4 (Death Receptor 4), cell …; test: flow cytometry, MDA-MB-231 cells, N = 2

binding result [1]: binds
B1: BisG1-FAPα-FERL/DR4-FERR (bispecific antibody, human IgG1, kappa, lambda)
heavy 1: EVQLLESGGGLVQPGGSPRLSCEASGFTFSSYALSWVRQAPGKGLEWVSAISGSGGGRYYADSVKGRFTISRDNSKNTLFLQMNSLRAEDTAVYYCAKEGYSSSGTYWDHWGQGTLVTVSSASTKGPSVFPLAPSSKSTSGGTAALGCLVKDYFPEPVTVSWNSGALTSGVHTFPAVLQSSGLYSLSSVVTVPSSSLGTQTYICNVNHKPSNTKVDKRVEPKSCDKTHTCPPCPAPEFERGPSVFLFPPKPKDTLMISRTPEVTCVVVDVSHEDPEVKFNWYVDGVEVHNAKTKPREEQYNSTYRVVSVLTVLHQDWLNGKEYKCKVSNKALPAPIEKTISKAKGQPREPQVYTLPPSREEMTKNQVSLTCLVKGFYPSDIAVEWESNGQPENNYKTTPPVLDSDGSFLLYSKLTVDKSRWQQGNVFSCSVMHEALHNHYTQKSLSLSPG
light 1: AIQMTQSPSSVSASVGDRVTITCRASQGVSSWLAWYQQKPGRAPKLLIYVASTLQSGVPSRFSGSGSGTDFTLTINSLQPEDFATYYCQQANSFPPTFGQGTRLEMKRTVAAPSVFIFPPSDEQLKSGTASVVCLLNNFYPREAKVQWKVDNALQSGNSQESVTEQDSKDSTYSLSSTLTLSKADYEKHKVYACEVTHQGLSSPVTKSFNRGEC
heavy 2: QVQLQESGPGLVKPSGTLSLTCAVSGGSISSYSWWSWIRQPPGKGLEWIGELYHSGSTNYNPSLKSRVTISVDKSKNQFSLKLRSVTAADTAVYYCVRGVATIDYWGQGTLVTVSSASTKGPSVFPLAPSSKSTSGGTAALGCLVKDYFPEPVTVSWNSGALTSGVHTFPAVLQSSGLYSLSSVVTVPSSSLGTQTYICNVNHKPSNTKVDKRVEPKSCDKTHTCPPCPAPEFERGPSVFLFPPKPKDTLMISRTPEVTCVVVDVSHEDPEVKFNWYVDGVEVHNAKTKPREEQYNSTYRVVSVLTVLHQDWLNGKEYKCKVSNKALPAPIEKTISKAKGQPREPQVYTLPPSREEMTKNQVSLTCLVKGFYPSDIAVEWESNGQPENNYKTTPPVLDSDGSFFLYSRLTVDKSRWQQGNVFSCSVMHEALHNHYTQKSLSLSPG
light 2: QSALTQPPSASGSPGQSVTISCTGTSSDVGGYNFVSWYQQDPGKAPKLLIYEVTKRPSGVPDRFSGSKSGNTASLTVSGLQAEDEADYYCSSYAGSNNVMFGGGTKLTVLGQPKAAPSVTLFPPSSEELQANKATLVCLISDFYPGAVTVAWKADSSPVKAGVETTTPSKQSNNKYAASSYLSLTPEQWKSHRSYSCQVTHEGSTVEKTVAPTECS
notes: Human IgG1 bispecific made by controlled Fab-arm exchange of IgG1-FAPα-FERL and IgG1-DR4-FERR; monovalent for FAPα and for DR4; also called GEN1057
EC50 [2]: 0.53 µg/mL
EC50 [3]: 0.72 µg/mL

From US20250002610A1 (Genmab, published 2025)
